Assay: soluble on expression in E. coli; label from the status in PepcDB or PDB records

| Sequence | soluble on expression in E. coli |
| --- | --- |
| GMGILSGNPQDEPLHYGEVFSTWTYLSTNNGLINGYRSFINHTGDEDLKNLIDEAIQAMQDENHQLEELLRSNGVGLPPAPPDRPAARLDDIPVGARFNDPEISATISMDVAKGLVTCSQIIGQSIREDVALMFSQFHMAKVQFGGKMLKLNKNKGWLIPPPLHSDRPIKE | soluble |
| GMGSLAEWYQRIPTPDDLTRVESLFANMQAQFPQLKLEFKWNQPMFTDHGTFIMGFNPSKKHLAVAIEPQTMTRFIPQIDKAGYDHSQIIRFPWHKPLDEQLIHDLIAYTIDQKKDATTFWQR | soluble |
| GMLHYTKEDLLELGAEITTREIYQQPDVWREAFEFYQAKREEIAAFLQEIADKHDYIKVILTGAGTSAYVGDTLLPYFKEVYDERKWNFNAIATTDIVANPATYLKKDVATVLVSFARSGNSPESLATVDLAKSLVDELYQVTITCAADGKLALQAHGDDRNLLLLQPAVSNDAGFAMTSSFTSMMLTTLLVFDPTEFAVKSERFEVVSSLARKVLDKAEDVKELVDLDFNRVIYLGAGPFFGLAHEAQLKILELTAGQVATMYESPVGFRHGPKSLINDNTVVLVFGTTTDYTRKYDLDLVREVAGDQIARRVVLLSDQAFGLENVKEVALGCGGVLNDIYRVFPYIVYAQLFALLTSLKVENKPDTPSPTGTVNRVVQGVIIHEYQK | soluble |
| GMLKLCGFAASNYYNKVKLALLEKNVPFEEVLAWIGETDTTATPAGKVPYMITESGSLCESEVINEYLEAAYPQTPLLPRDPMQAGKVREIVTFLELYLELTARELYPEAFFGGKVSDNVKERQLKLLSRYVPAFAKLAKFSPYVAGDTFTLADCAAAVHLPLVSSCTKIIYGKDLLADLPVKEYLKTLSERPSVQKVNADRKANTELMLSRNK | soluble |
| GMMYTNDNRIVMTLDAGGTNFVFSAIQGGKEIADPVVLPACADCLDKCLGNLVEGFKAIQAGLPEAPVAISFAFPGPADYQAGIIGDLPNFPSFRGGVALGPFLEDIFGIPVFINNDGSLFAYGEALTGVLPEINRRLREAGSTKRYKNLLGVTLGTGFGAGVVIDGELLRGDNAAGGYVWCLRNKKYPEYIVEESVSIRAVMRVYAERSGDAGARTPKEIFEIAEGIRPGNREAAIAAFEELGEMAGDALASAITLIDGLIVIGGGLSGASKYILPVLLKEMNAQTGMMDGARFGRLQKEVYDLDEEKSFAGFARGEAVEVLVPGTNRKVGYDPCKRIGVTFSKQGANRSIAMGAYVFALNHLSK | soluble |
| GMNVDFINPFLDSLLNVLKTMANMELKPGKPNLKKDNLAKGDVSGLIGMVGPQTKGSLSITFEETLILEIMNKMLGEKPESIDEEVTDLVGELTNMVTGGAKNLLSDKGYEFDMATPIVVSGKNHTIAHKSDGQKIIMPFSSIYGTAYIEICFEG | soluble |
| GMPTDDIVQLLKGQEEAWNRGDLDAYMQGYWQNEQLMLISNGKFRNGWDETLAAYKKNYPDKESLGELKFTIKEIKMLSNYAAMVVGRWDLKRLKDTPTGVFTLLVEKIDDRWVITMDHSSD | soluble |
| GMRNELPPENAYRILESGPIVLVSTRGADGRANLMTMGFHMMMQHEPPLVGAIIGPWDYSHQALSETGECVLAVPTVDLAETVVDIGNCSGDALDKFGHFGLTPVPAQTVDAPLVRQCWANLECRVVDDGWARRYNLWVLEVQRIWIDTARKETRLIHHQGDGRFSVDGDTLDLGERMTKWRHLMG | soluble |
| GMSEALSDSGLPPVQRVVTGHDAHGRAVFKSEDVTPTRMIPSGDASFLLVWTTATVPADNNDETDGRQREAGLTLDGGSVIRVVDMLPGKESPMHRTNSIDYGIVLEGEIELELDDGAKRTVRQGGIIVQRGTNHLWRNTTDKPCRIAFILIEAPAYLHNGQPLPEDKPDHK | soluble |
| GMSEPEVPFKVVAQFPYKSDYEDDLNFEKDQEIIVTSVEDAEWYFGEYQDSNGDVIEGIFPKSFVAVQG | soluble |
| GMTNVGRPIETHAITVGQGSDARSIAALVRAPAQDERPTCIWLGGYRSDMTGTKALEMDDLAASLGVGAIRFDYSGHGASGGAFRDGTISRWLEEALAVLDHFKPEKAILVGSSMGGWIALRLIQELKARHDNPTQVSGMVLIAPAPDFTSDLIEPLLGDRERAELAENGYFEEVSEYSPEPNIFTRALMEDGRANRVMAGMIDTGCPVHILQGMADPDVPYQHALKLVEHLPADDVVLTLVRDGDHRLSRPQDIDRMRNAIRAMIEPRP | soluble |
| GMYAVPILNVYDFEVKKDKETSYKSATEDYVNKTMGVEQGVLGLFAATDERDKTTSYIVEIYNDYLAFSNHTKNQASKDFKAVIPQIAEGNLNSAEIDVQIAKDKKIEQNDNTFAVYTVIDVKPENDKEFAEIIKNIVETTFNEEGTLLVYLGTDRRNFNKWCLFEVYKDIDSYLNHRSAKYFKDYITQTKDMIAGKKRAELQVLKIENKGGLDYKKLY | soluble |
| GPEQVLDRASMHLANGLLGNPDSAAGLEVLLGGLKLRFVSGSAVAVTGAEGMVTLDGTELPLNKAVRVPPGAVLELGPAMFGIRYYLAVQGGISAQGEAAQGEAIRAGAALTFGRPNNHGSPEVNHPARRALDPERPVVARVSRGPQAQNDDAGTWLRLTSEPWILSPESDRAGARLVGRPLDVTSAPIPQAQPLVSGSVLLPSSGLPVIALAGHPDTSQSPVIAVVRDEDLDVLGQARPGQMVHLLG | not soluble |
| GPGMASSPRPKMDAILTEAIKACFQKSGASVVAIRKYIIHKYPSLELERRGYLLKQALKRELNRGVIKQVKGKGASGSFVVVQKSRKT | soluble |
| GPGSMAALRYLLAPRRALVTPFLRSVTCVSSGGIFSSQRPHTFPVLWHAVRTHSNDSGERSKPLTLHVQLPCGTMRTLTAYEGQTLLDVAMEHGLPIEGACGGSCACSTCHVYLENDEAMELFDEATDEENDMLDMAFFPQSTSRLGCQLTLRQQKHDGLKISLPKATRNMYVDGHTITPHH | not soluble |
| GPGSMADAYRERALPTLSVLERLRCLRREHVPYASHYCEENAYKLVEALYRDFSLPDHAVFAVFISNDCKSTPVWKQRLGNGRCPLMWDYHVITLVNVGAGDEGGMWAFDQDTTLPFPCEGLRYIEESFHPEMQLDDKYRQRFRVVPGRDYLEYFSSDRSHMKDFDAAQPPWPLIRGCRAPSDMRLGLYVDVHQSSSGEDVKKEQGCGKILSIAELISFVSP | soluble |
| GPGSMAGKGNAKVVVTHPKSRKVRQLQRQSRREKRISEQKGKRNAKAALEAARFFWFREQCLALGRTKLAFSREEAQVLTEQYLKRNDEEIVALKSMRNPTAGRIKILEAMKTSEADDFNSSKGIVIPDITNSDNLEILTSIWDGRADTAGVVRRVGLTRTGVSPAAPAVTELEGKLLTIDEVRERSIDFTSRKARKFQTMKRVQSVKKTPTAEDVWLRSKKRGVDLQAKRLRQGREAVLKTRRAN | soluble |
| GPGSMAKYFVPDTTFGLDAECAVCCCLWTDPVEISECQHIFCRGCVEGLETCPVCCGPVTRLDTPGKFILRLLQRTQGSCSACLWKGTYSDFKEKHFECLEADEVQSSDEGKILATTECVAMREYYLEGSGAKPEGSAPSPAAVDSFLVHPVAAVNAGSPHAQPFADATNNGAPVADAHLTCEQRAQWRQSLTSTARDYGMSDREYRELMECFPDFAVPVPDRGMAPELRWRGACRLLRFLNYPNHPDDVKNLFEMADRDALTESVPFHVLCLWLMLNRRNPAQWYHMTAEPYEQFLKVAQLLDVEATGLFQLDQCRILAEQYFERDVCDAEWLRIKRLLRSKDAEIRQSFLSSANRRRVNLDESFALPSAKLPLHDVLCAFTRHVDALKKEQQQQSEAERVQADYVRRIKRIVDFYEPDAVNQLDATLQKFTGEEESLLMTLTAMYGPEPP | soluble |
| GPGSMAVNILKAGFPVSVWNRTASKCDDLVAAGATACATPAELAAASDVVFTNLSDSPDVMEVVFGPNGVAAGICEGAIFVDNSTIKPSVAQEIARRLWKEKKVRALDAPVSGGDIGARNGTLTVMVGGDAAALATVLPVLLAVGKKVTHIGDCGAGQVCKAANQIMVAAQMVALGEILVFCEKCGVSGPTVIEAIKSGSAQCWTLDVKPDRLFAGNRAPGFKAALQSKDMGIVMDTAKEFGVPLPSTAVNTQLFQAMVQNGDGDRDNSAVVSVLERMANVHISEAERE | not soluble |
| GPGSMDAGSDEAVQKKMQEFLSKDAMEELRNIGDRTESRVRHGLLPRDYQQQQHQKDYQTANVTHEEEVNSYIQQRRTWRENVFLLRDFEYWRLRAEYYPYVRRGDEQNDNFFIRGIACHPRLSDYPMCRKPIQDYFVCRDKNKILQLFNLCAPMKEQFCACINEVFVKNHERGDKKFNAQRNEYFEEQRNRRLSKMMAHVEDSMEKRKKLQD | not soluble |
| GPGSMGCLPPDDLGPFVSDHVDVNEAEPVPLSDEDLDLLVRYSLLPTDVVREAWAVFNHYRVVECLRAQQRHYAMTGHLPQKSTVSMSARPFPVAECGGKLFTTPVRAASGDCNAVKEEEKAPVSPRDCVTGENSECRKEEVEVAVLGAEGLRQFFEDTGAPIPTLEVTSFLRRMSQPPVEYLLYQRALEEKLTGAAAAAAPPREESPGVGQRKKSPQTDQSKHNKGQSVGRGQRPNNNTKSLNILVDDHIDLLEEQRGSGGETVTFPLFLYILSNAELGKNFTADVRESEINTLFRTLDVDGDGVVSVDDIQRLLEERCSLGDTLYEDRDIRYLRGMNLTELKAALRECDVDEDGAVRLNDFRSVLSS | soluble |
| GPGSMGLTQDQTQRVKTAFLSYAQGQPKVSEAMMDQLICGAIPGLSWEQLQAKKAVRKVGADGYDLGAFFAMVNSDPAYIAFIQQHFPPAPPEQKEPEVDALALKTAKGF | soluble |
| GPGSMGSGYLKRKRQRQELLNDFYSALSLSSFDTTSGQFSKLVTRTVYHYPSSLPFPVLLDDDFPAEPYRSRNKDIKSAIHWGQRKLLLSEIQLLSMYCRPEISYHIVYAGAAPGTHLAFLDEMFSCRHTWELIDPGQFDRAVLEPRANFRLRNEFFTNATAYGINARRLTEVLPALGFVYQNVAVDSVQVDKKAIHEQLQDIVGTLDVARGTEDIPAMYEAPLSLPKGLELLAQVALERNKPLLFISDIRSGSVALPNFEDHVAENMRAQECWTNILHGEHSMLKFRLPYTSKSTKFGGQGAVRETLLIREDGTVPYLRGDMLLPIWTRPTSTEGRLVVPQGAFQKDYNVAHVEDQFFFFNSSVREQVHFNHLVAHDSELDHHYDAAAEVHCLLTYLRFIRPELKTAKTGELRKEVLRVAHSITAHLGITFEDAIRRRDALMINHAKKSQNKAVEGHKDDAYGDEEAEEQEAKSAASKVRAGSNESAAAADGAATSTTAPVPPSEWEQTTRLMVRLSNYDRNRSVWSRNVREEEHSKTSGFWVTTKMPQA | not soluble |

Source: the DeepSol protein solubility set
